Here are results for one molecule from article PMC10953399, “Escherichia coli DNA repair helicase Lhr is also a uracil‐DNA glycosylase”.

The target in series [1] is Lhr (Escherichia coli MG1655, UniProt P30015 1-1538). The series is described as follows: EMSA; 5 mM EDTA; 12.5-200 nM protein, 12.5 nM DNA; 20 mM Tris pH 7.5, 10% glycerol, 100 ug/mL BSA, 25 mM DTT, 5 mM EDTA, 12.5 nM Cy5-DNA; 37 C 20 min then ice 10 min; 5% acrylamide TBE gel. The following applies: protein: recombinant; tags: His6; label: 5' Cy5; single strand. In general terms: Mobility shift assays separate free from complexed probe on a gel.

The target of series [2] is T1, Lhr-CTD (Escherichia coli MG1655, UniProt P30015 876-1538).
T1 sequence: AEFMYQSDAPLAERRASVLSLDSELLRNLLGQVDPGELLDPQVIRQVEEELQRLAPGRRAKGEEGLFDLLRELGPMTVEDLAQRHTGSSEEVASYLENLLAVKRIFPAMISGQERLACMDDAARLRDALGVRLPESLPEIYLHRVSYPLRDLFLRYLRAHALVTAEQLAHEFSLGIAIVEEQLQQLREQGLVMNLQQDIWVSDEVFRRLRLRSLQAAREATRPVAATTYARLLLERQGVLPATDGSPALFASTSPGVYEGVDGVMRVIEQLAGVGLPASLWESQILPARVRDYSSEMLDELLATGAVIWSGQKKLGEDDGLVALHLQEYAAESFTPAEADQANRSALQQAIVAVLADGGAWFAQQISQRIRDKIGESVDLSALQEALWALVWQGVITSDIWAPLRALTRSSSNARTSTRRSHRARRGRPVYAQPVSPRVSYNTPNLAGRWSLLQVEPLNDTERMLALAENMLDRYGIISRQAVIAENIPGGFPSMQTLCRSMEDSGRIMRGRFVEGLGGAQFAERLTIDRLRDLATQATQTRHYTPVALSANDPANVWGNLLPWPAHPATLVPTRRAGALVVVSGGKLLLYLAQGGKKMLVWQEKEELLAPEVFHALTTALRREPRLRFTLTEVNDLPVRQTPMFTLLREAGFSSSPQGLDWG
The series is described as follows: EMSA; 5 mM EDTA; 12.5-200 nM protein, 12.5 nM DNA; no stable complex; 20 mM Tris pH 7.5, 10% glycerol, 100 ug/mL BSA, 25 mM DTT, 5 mM EDTA, 12.5 nM Cy5-DNA; 37 C 20 min then ice 10 min; 5% acrylamide TBE gel. The following applies: protein: recombinant; tags: pNH-TrxT vector (GU269914.1); label: 5' Cy5; single strand.

Take TCGGATCCTCTAGACAGCTCCATGATCACTGGCACTGGTAGAATTCGGC (ssDNA) [Cy5-ssDNA (EMSA)]: the figures for the binding result in series [1] and in series [2] were “binds” and “no binding”, respectively.
